From the DeepSol protein solubility set

test: soluble on expression in E. coli; label from the status in PepcDB or PDB records

Row | Sequence | soluble on expression in E. coli
1 | MAWLNPFWSSPKAYVRPPKRGLAPELWASRIPFTHLENFYEVFRALWENRDNLPYAWRILKDGVCDGCALGTSGLEDWTLHGVHLCNVRLRLLSLNTLPPLDPKVLKDVEALKGRKSRELRRLGRLPYPMLRRKGERGFRRVSWDEAMGLATEYLRRHLPEGAFFYLTSRGVPNETYYVVQKAVRALGCNHVDNAARICHSPSTVVLKEALGVAATTCSYTDLIGTDLVVFLGSNVANNQPVMMKYLYHAKKAGTKVAVVNPYREPGMERYFVPSDLESALFGTRIADRFFQILPGGDIAFLHGAAKWMLEEGWVDPGFIRAHTAGFEAYKALLEAIPFAELEKAAGVSREEMRAFAEMVGRAERAVFVWGMGITQHTHGEDNVRAIVNLALLKGFVGREGCGLMPIRGHSGVQGGAEMGAYATAFPGGLPVNPENARRLAELWGFPVPDRPGLTTPEALDRALEGRLGVLWAIGGDFREVMPDPEAVEEALRRVPLRVHQDIVLSSQMLLEPGECVLLLPATTRYEVPGGVTETSTERRVIFSPEIPGPRPPEARPEWEVFQELVHRLRPELKDRFRFASTAEIREEIARVIPLYEGIQRFKAKGDQFQYGGRRLCEGWRFPTPDGKAHFRPVPLPQKEVPEGAFRVVTRRGKQFNSIVHEDQDPLTGAFRDAVYMNPKDAARLGLKPGDPVVLENAFGRYAGRVYLAEVKEGTLEVHWPEGNVLVDPKARSPLAHIPAYKEILAHLRRGEAEAPSPLRP | soluble
2 | MAYEEHFQQTSEAKYDCLLFDIDDTLYPLSSGLAMEVKKNIQEYMVQKLGIEEDKVQELCLSLYKIYGTTMAGLKAVGYDFDYDDFHRFVHGRLPYSTLKPDPILRNIILSLPIRKVVFTNADKAHAAKIIARLGLEGCFEKIISFETLNPITKTESPVDTKTREIFDIISYMANPDSSIELPKTSVVCKPSEGAFEQVFKMANINPKKTLFFDDSIRNIQTGKRVGLHTVWVGTSHREEGVDIALEHIHNIREALPQLWDAVDDKAKEIRTRQKVAIETIA | not soluble
3 | MAYETFAFVYDEVMDESLYQKWLDFSNRHLPQGTQQILEMACGTGALAVDFAKSGYDVTALDLSEEMLMIASERAFEEEVPVQFVQGNMLDLSEVGQYQAITCFSDSLCYMANRQEVQQVFDEVYQALEEEGTFIFDVHSTYKIDSVFPEYSYHYQTEEFAFLWDSYAGEKEHSIEHFLTFFVKEQETDEHFVRYDELHQERTYSLDNYLRMLESAGFMNVKVYADFTDEAPTETSERWFFVCQRD | not soluble
4 | MCFINLRSVADTINTQTRRITMFTYYQAENSTAEPALVNAIEQGLRAQHGVVTEDDILMELTKWVEASDNDILSDIYQQTINYVVSGQHPTLLEHHHHHH | not soluble
5 | MCGIVGYIGNNEKKQIILNGLKELEYRGYDSAGMAVMQEGELSFFKAVGKLENLANKCTDFESQGYGFAIGHTRWATHGKPTEINAHPHLGQYSCVIHNGIIENYKEIKDKLEKEGVSFLSQTDTEVIVQLFEFYARNLGVFEAWQKTIKELRGAFATLLVTKKDPNHVYFAKNAAPLIIGKNANKEWYFSSGDAPLIGSCDEVMYLEDLSLGYASKDELVVYENDILKSLCFSKLSGDKAYAKKDGFRFFMEKEIYEQSRVMSEVLMGRIQGDEVVFDELNNEDLSQVDEITLCACGTSYHAAMASAYLFERIAKVKAKVEIASEFRYREAIIKKDSLFIVISQSGETADTLEALKIAKEQGAKTFAICNVDNSNIVRLAHLSLLTRAGIEKGVASTKAFATQVLTLWMLAIFMAQKRNLNVSAEIKALLHTPNCVSVKQALHEKIHRLSKRYLDGHGFFFIGRDVFYPLALEGALKLKELSYLHAEGYPAGEMKHGPIALADSKLYTIALMPKHMLYEKTKSNVEELIARDSTVLSISPLEFDLSDDFIKTNEQDHYMCEFFEMMVITQLLAMEISIRLGNDVDMPRNLAKSVTVE | not soluble
6 | MCHEEVFSCCRTRTFHFLRSYGHDGWRNDGRNDERKADVSAHVLLPLHDAYDADDVHDADDGYALHGYEPHDGNDEHADDGSGNHEDCNRTQAKVYEGTYGKTPEENEKVIFSSFFPLFLEE | not soluble
7 | MCIAIPGKMTAIVDENTATIDMGGICRDVNMALMGGAEESMIGKHFLVHVGYAISEISEEESEETMRLLKIMAGLEEIDSFE | soluble
8 | MCLAIPSKVIAIKDNVVLLETLGVQREASLDLMGESVKVGDYVLLHIGYVMSKIDEKEALESIELYQEMIARMNETQ | not soluble
9 | MCLDQVMEGSATVHMAAPPDKIWTLIADVRNTGRFSPETFEAEWLDGATGPALGARFRGHVRRNGIGPVYWTVCEPGREFGFAVLLGDRPVNNWHYRLTPTADGTEVTESFRLPPSVLTTVYYRVFGGWLRQRRNIRDMTKTLQRIKDLVEAG | soluble
10 | MCLGVPAQIAEIHDSTRATVSMSGVSRMVSTDLLAETIDVGDWVLIHVGFALSKIDEDEAAVTLQQIKQLGGFDEELQSFESSEI | not soluble
11 | MCLIVFAWQPGHALPLLVAANRDEFYARPSLPLAAWEDAEGVFAGRDLEAGGTWLGLGPAGRFAALTNVRDPSQALGKRSRGELVADFLRGGGNPADYLAQVAGRAADYSGFNLLIGDRHQLWHYNPRVGPPRLLPAGIYGLSNAALDTPWPKLLKARAALAERLAEPHPQALLELLADAAPAADGQLPDTGVGLATERLLSSVFIASPSYGTRASSVVRVHADGTREMIERSFGPSGARLGEVSLVLPPGLEHHHHHH | not soluble
12 | MCLVDFGLRFNHKGRHYFKAANGEDIALSLSIGAAMFNGHPDYERLIQIADEALYIAKRRGRNRVELCKASL | not soluble
13 | MCMSSQSYFKSVMYALVTGGTRGIGRAITEALLKEGYNVAVLYHGSEDKAKELREKGVLTVRCDVGDRNQVKKAKEEISNHFPRLDVLVNNAGIWYLMPFEQFDEEKYERMLRVNLNGTIYVTYEFLSLLKKSSAASIINIASNAGIGTAAEGTTFYAITKAGIIILTRRLAFELGKYGIRVNAVAPGWIETDMTLGNKSDEEKEKLREIFRNKTVLHTTGKPEDIANIVVFLASEKARYITGQVIVADGGRIDNLTHSV | soluble
14 | MCMVHTYLGETINFHITYKKKKSVRLFVDSYGNVEVQAPKGTPVEYLIQLLEEKWDWIQTTRKEMAERARGPQEKDYDQGEGFLYLGNTYPIQISQDANITQDNAVFEKDRLHIYVKELKDEKIQQALKRFYYKQKSLVEKSIKAHQSNFKTKPRSIRITDSSRTWGTCDSNLQLTFNWKLAMAPQRVIDYVVVHEMCHMVHLNHDRSFWRLVGKIMPDYKEMENWLALSSWKMTVMAGDPLEHHHHHH | soluble
15 | MCRLAILALFSVAMVSVYGQDTPPPFLRNATPDQLKSFQQMIQSNGHLTETAMGAKIQEWVDQQGGKVAADWKDFQEFIKGQQGKSEAAHQTAISSFSPEAKKADAELTAISNDASLSIKAKGDKIQAYLTTLPANVKAELEKAQGQ | not soluble
16 | MCSKQSANQQISYRQTAEATLDKGMDNQPEAPYWFPKQLLKWQLSKDKAAKYNTASVPLAKRIDKWQLPTVNKTQDPKMKVVALSIMNSSTSGNAPRGINTFDANVFSNWQYIDQLVYWGGSAGEGLIVPPTADVIDSAHKNGVPVLGTVFFPQVVSGGKLKWLNDFLKQDADGHFPMADKLVAVAKAYGFDGWFINQETDPEVKSFDSASTGKTATSSTSNGLSKKHAQLMQQLIKEYKQKAGSKLDLMWYDSMTKDGKMDWQNALTKENQSYLVDANMKPVADSMFLNFWWTKKRLASQELLKKSHERAEKLGISPYNLFAGIDVQADGTATPVRWNLFANKQHVPYTSLGLYAPDWTHASSDTVDEFQAKEGALWVNDQNDPSRSIPSTTSTHWPGVSTYAVEQSAITKQPFVTNFSLGNGYNYFIKLEHHHHHH | not soluble
17 | MCSVKPKYISLPEQNSLCSLPNSGCCQVEVKIGRSKWEQQKAILVKVDGEPAGKIFIYSQPLIGQMYPLHELKSMGVICEKAGDFLVNLVTERGLKLTFKPIGSTANCFVTALVSGNFTSLTHETHIKTPLQNQEATTSPTIESDLTDKPDTNVYTGSREGYVAPSEKGSNEKKKEVVPNGGDKSVENKKGSDRNVKKTPSKTVTKPLLSESRKRKEAKTLATTQSQDLPAPTKDEPERTNSEPDNGEQEKIKKEKKKGTETSLKDGKNKLNEKIVKPAPTTTPDAGNGGLTPGKEDNKKTVTTSSVEIEVPEKKKAVENAGIIKIS | not soluble
18 | MCTGFTIQTLNNQVLLGRTMDYDYPLDGSPAVTPRNYRWKSRTGTTGQTQYGFIGTGTDMEGFIYGDGVNEHGVAISTQYFRGYSSYGSTHKADAMNITQNEIVTWILVYTTSIEDMKQQASQIHVVAVYLNDIGEVPPLHYHVSDATGHTVEVSFKEGEVVIKDNPIGVLTNHPDLNWHYSNLRQYINISPYPATANLLEGVTIEPLGNEAGTFGLPGGFTSTERFVRMTFMKANIAQNNDKEMDLMNAFYLLDAVNIPIGIVRPHDADNHYTMYQTVINLTTRTLYIKYYGSNELVALKLTDDLINRKDMTIFKPEKHITIRKLNDNQ | not soluble
19 | MDADMDYERPNVETIKCVVVGDNAVGKTRLICARACNTTLTQYQLLATHVPTVWAIDQYRVCQEVLERSRDVVDEVSVSLRLWDTFGDHHKDRRFAYGRSDVVVLCFSIANPNSLNHVKSMWYPEIKHFCPRTPVILVGCQLDLRYADLEAVNRARRPLARPIKRGDILPPEKGREVAKELGLPYYETSVFDQFGIKDVFDNAIRAALISRRHLQFWKSHLKKVQKPLLQAPFLPPKAPPPVIKIPECPSMGTNEAACLLDNPLCADVLFILQDQEHIFAHRIYLATSSSKFYDLFLMECEESPNGSEGACEKEKQSRDFQGRILSVDPEEEREEGPPRIPQADQWKSSNKSLVEALGLEAEGAVPETQTLTGWSKGFIGMHREMQVNPISKRMGPMTVVRMDASVQPGPFRTLLQFLYTGQLDEKEKDLVGLAQIAEVLEMFDLRMMVENIMNKEAFMNQEITKAFHVRKANRIKECLSKGTFSDVTFKLDDGAISAHKPLLICSCEWMAAMFGGSFVESANSEVYLPNINKISMQAVLDYLYTKQLSPNLDLDPLELIALANRFCLPHLVALAEQHAVQELTKAATSGVGIDGEVLSYLELAQFHNAHQLAAWCLHHICTNYNSVCSKFRKEIKSKSADNQEYFERHRWPPVWYLKEEDHYQRVKREREKEDIALNKHRSRRKWCFWNSSPAVA | soluble
20 | MDAELFPRSRAQVAPDAVHVPDWADAGRQRRFLAACRDWARPPAGLRTVHTPGGGTMTSRQVCLGWHWYPYGYARTVVDGDGAPVKPLPDWLAELGRDAVSDALGPQAVPPVPYDIALINFYGADARMGMHRDSDEKSGAPVVSLSVGDTCVFRFGNARTRTRPYTDVELRSGDLFVFGGASRLAYHGVPRVYADTAPPELGLVGRLNITLRVSGFQDPSGE | not soluble
21 | MDAENRVIINVGGIRHETYKATLKKIPATRLSRLTEGMLNYDPVLNEYFFDRHPGVFAQIINYYRSGKLHYPTDVCGPLFEEELEFWGLDSNQVEPCCWMTYTAHRDTQETLAVL | soluble
22 | MDAGDASRLGESLDAVSAAFQSRVMELQELVLARNMYPATAIPDLAAVDVSLTAMEAQLQAVRRRLQEEREAFPKAKKLVQQSLKQQRRLQLMLANMPTGMREDVFATPLEHNSSMMFPESLNFSSAVPEVRDHDLKIKEEPTAPPKKKGRGPAPRWYISTEELDSLSSYMRGRLTLEKVNIAINEVASYADGNAHLVACPKKKLSEDTWEKALELRDIAARESVKGRHFFLETDIKGPGLKLDTTGKAILTVRASTIMLYMLPLKLPYWIE | soluble
